Results as given in patent publication US20160201045A1, “Endo-xylanase and Coding Gene and Use Thereof” (SHANGHAI INSTITUTES FOR BIOLOGICAL SCIENCES CHINESE ACADEMY …, priority 2013, published 2016).
Several values for one entry are separate records, joined by “and”; a condition that tells them apart may be missing. Equal values may be shown once.

Key:
Assay type in all cases: biochemical
[1] = Specific activity of the xylanase on beech xylan (DNS method); settings: pH7.0, 50° C., 10 minutes
Method: Enzymatic activity of the endo-1,4-β-xylanase was tested by a DNS method as follows:
10 g NaOH were weighed and dissolved in about 400 ml ddH2O. 10 g dinitrosalicylic acid, 2 g phenol, 0.5 g anhydrous sodium sulfite and 200 g potassium sodium tartrate tetrahydrate were weighed and dissolved in about 300 ml ddH2O. The two solutions were mixed, diluted to 1 liter and preserved in dark.
100 μl DNS were added into each of the above standard samples. The mixtures were subjected to boiled water bath for 5 minutes for developing color. Absorbance value at 540 nm was detected by a microplate reader. Standard sample 1 was a blank control. The absorbance value of the blank control was subtracted from that of each sample and then the standard curve was plotted.
In a 100 μl reaction system, birch xylan was added to a final concentration of 1% (w/w), and Na2HPO4/NaH2PO4 buffer (pH7.0) was added to a final concentration of 100 mM. A suitable amount of enzyme solution diluted by the abovementioned buffer was added to the reaction system for reaction at 50[…] for 10 minutes. 100 μl DNS were added to stop the reaction. […] Absorbance value at 540 nm was detected by a microplate reader. After subtracting the absorbance value of the control from that of the sample, the enzymatic activity unit (U) was calculated based on the standard curve. […]

[2] = Hydrolysis of Xyl7 on different substrates (DNS method); settings: substrate 2% (w/w), pH7.0, 50, 10 minutes
Method: (§1) In a 100 μl reaction system, birch xylan was added to a final concentration of 1% (w/w), and Na2HPO4/NaH2PO4 buffer (pH7.0) was added to a final concentration of 100 mM. A suitable amount of enzyme solution diluted by the abovementioned buffer was added to the reaction system for reaction at 50[…] for 10 minutes. 100 μl DNS were added to stop the reaction. For the control, 100 μl DNS were firstly added to the above reaction system before adding the enzyme solution. The reaction mixtures were subjected to a boiled water bath for 5 minutes to develop color. Absorbance value at 540 nm was detected by a microplate reader. After subtracting the absorbance value of the control from that of the sample, the enzymatic activity unit (U) was calculated based on the standard curve.
Various substrates with a final concentration of 2% (w/w) were treated by a suitable amount of enzymes at pH7.0 and 50[…] for 10 minutes. Enzymatic activity was tested according to the above standard enzymatic activity detection steps. […] No detectable enzymatic activity was found for the other test substrates. This was consistent to the high substrate specificity of xylanase of the GH11 Family.

[3] = Detection on pH tolerance; settings: pH 6.5, 7.0 or 7.5, 50° C., 45 min; % of the highest activity
Method: as §1
The enzyme solution was kept in buffers of different pH values (6.5, 7.0 and 7.5) or at pH 7.0 with addition of 70 mM mercaptoethanol at 50° C. for different times (15 min, 30 min, 45 min, 60 min, 75 min). Enzymatic activity was tested according to the above standard enzymatic activity detection steps (enzymatic activity was tested after reacting at pH7.0, 50° C. for 10 minutes). The specific activity value of Xyl7 obtained after storing at pH7.0, 50° C. for 0 minute and reacting at 50° C. for 10 minutes was used as a reference value, and its relative activity was defined as 100%. […]

[4] = Detection on the optimum temperature
Method: as §1
Enzymatic activity was detected according the above standard enzymatic activity detection steps at pH 7.0 and a temperature in the range of 25-80° C. The optimum temperature of Xyl7 was in the range of 50-55° C., with an activity at 50[…] slightly higher than that at 55[…]. Thus, the specific activity value of the enzyme at 50[…] was used as a reference value and its relative activity was defined as 100%. The relative activity of the enzyme at each temperature was a ratio between the specific activity value of the enzyme at each temperature and the reference value.

[5] = TLC analysis on hydrolyzed products of birch xylan by Xyl7
Method: 1% (w/w) Birch xylan was treated by 15 U Xyl7 at pH7.0 and 50[…] for 10 min, 1 h, 4 h, and 12 h, respectively, to obtain the hydrolyzed products. […], each 5 μl, were subjected to TLC for identification. The standard samples were xylose, xylobiose, and xylotriose. The developing agent comprised ethyl acetate, acetic acid and water in a ratio of 2:1:1(V/V/V). The chromogenic agent was a solution of 1 mL aniline, 1 g diphenylamine and 5 mL 85% phosphoric acid dissolved in 50 mL acetone.

[6] = Residual activity under feed additive conditions (acidic pH, 37° C.); settings: pH 4-5, 37° C., 15-60 minutes
Method: as §1
As a feed additive, xylanase is required to retain its enzymatic activity in a pH environment of about 4 due to the acidic environment in the stomach of livestock, such as pig, and retain its enzymatic activity in a pH environment of about 6 due to the weak acidic environment in the digestive tract of chicken. Therefore, Xyl7 was tested for its residual enzymatic activity after treated in pH4 or pH5 at a 37° C. bath for 15, 30, 45 and 60 minutes. The residual enzymatic activity was a ratio between the specific activity of the enzyme obtained after various treatments and that of the un-treated enzyme.

B1: Xyl7: endo-1,4-β-xylanase of 505 amino acids, SEQ ID NO:2, from termite gut metagenome, expressed in E. coli with His tag (protein)
chain: MKKLIALSFIAAFFAPLFAQGPTWTTSTIQAYNGYDYELWNQNNAGTVSMKLTGDNGSGASAVGGTFTATWSNTQNVLFRSGKKWGSSSNQNHTQIGNMSINFAATWSSTDNVKMLGVYGWAYFTSANVPTKQENGTNASFSNQIEYYIIQDRGSYNPASGGTNAKKYGSATIDGIAYDFYVCDRINQPMLTGNGNFKQFFSVPQSASAHRTSGTISVSQHFNKWHELGMKMDGPLYEVAMKVESYTGSGSSNGSATVTKNLLTIGGTTPTPSSNSGGTTSSSSRASSSSRASSSSNAAVQATTCKTPLITYPTSTVPSDPYTACFKYTDDKCYVCKVENEGEFEGNMNTCGSGWVWDGTQIDNNLRDGYWYQEVPCPAGSSSSRSSSSSVAVSSSSRSSSSSVAASSSSRSSSSSASVSSSSEETPIRVLHTIPSKFRVRSLNNGALQIESNADVVLYLYDTKGKMAQKIEAPTGSSIVKLSVPAGIYIVRNVQTKEKLRVMVR
modifications: His tag; Intestinal tract metagenome of termite
Specific Activity on beech xylan [1]: 6340 U/mg and 6340 ± 48 U/mg | Specific Activity on beech xylan ([1]; listed as xylanase of the present disclosure): higher than 6340 U/mg | Specific Activity on barley dextran [2]: 0 U/mg | Specific Activity on carboxymethyl cellulose sodium [2]: 0 U/mg | Specific Activity on laminarin [2]: 0 U/mg | Specific Activity on locust bean gum [2]: 0 U/mg | Specific Activity on microcrystalline cellulose powder [2]: 0 U/mg | retained activity after storing in buffer [3]: ≥ 50% | optimum temperature ([4]; pH 7.0, 25-80° C. tested): 50-55 °C | retained activity in the range of 30-60° C. ([4]; pH 7.0, % of the highest activity (50)): ≥ 50% | hydrolyzed product of xylan, action time relatively short ([5]; 10 minutes, pH7.0, 50): oligoxylan | hydrolyzed product of xylan, action time relatively long ([5]; 12 hours, pH7.0, 50): xylo-oligosaccharide, mainly including xylobiose, xylotriose and xylotetraose | final hydrolyzed product if the enzyme was excessive ([5]; excess enzyme): xylose | residual enzymatic activity in acidic environment [6]: retain a sufficiently high enzymatic activity
